For data set [1] the following is noted: cited from earlier work.
The nature of data set [2]: Time course of Rebaudioside A utilization and RebAG1 formation (NP-HPLC). It counts as biochemical. The note with it: 1000 mM sucrose, 10 U/mL enzyme. How it is done: (§1) Incubation reactions were performed in 25 mM sodium acetate (pH 4.7), 1 mM CaCl2, 50 to 1,000 mM sucrose, 50-100 mM steviol glycoside, and 2-30 U/mL purified GTF180-ΔN enzyme or GTF180-ΔN mutant enzyme at 37° C. for 15 min to 24 hours. Reactions were stopped by heat inactivation (100° C. for 15 min). From the inactivated samples 250 uL was mixed with 1000 ul of 10 mM catechol (internal standard) and subsequently purified by solid phase extraction using Strata-X 33u Polymeric Reversed Phase columns (Phenomenex). For HPLC analysis 20 μL of the purified sample was injected on a Luna 10 μm NH2 chromatography column (250 mm×4.6 mm; Phenomenex). Reaction components were separated at a flow-rate of 1 mL/min under gradient elution conditions, starting with a 2 min isocratic step of 70% solvent A followed by a linear gradient from 70 to 55% solvent A over 9 min (solvent A=acetonitrile; solvent B=0.025% acetic acid). Rebaudioside A and the mono-α-glucosylated Rebaudioside A product concentrations were determined with NP-HPLC, using their corresponding calibration curves ranging from 1.56 to 50 mM. All data were normalized with catechol as internal standard. The standard deviation of the response was less than 5%. […]

Data set [3] can be described thus: Isolation and structural analysis (NMR, methylation analysis) of α-glucosylated Rebaudioside A products. It counts as biochemical. The note with it: 10 U/mL enzyme, 50 mM Rebaudioside A, 2 x 1000 mM sucrose, 24 hours. The method, then:
For quantitative synthesis of α-glucosylated Rebaudioside A products using GTF180-ΔN and its derived mutants, incubations were performed in 5 mL 25 mM sodium acetate (pH 4.7), 1 mM CaCl2, 50 mM steviol glycoside with two batches of 1,000 mM equivalent of sucrose donor (t=0 and 3 h) to a total of 2,000 mM sucrose, using 10 U/mL enzyme at 37° C. for 24 hours. Products were purified from the incubation mixture by solid phase extraction using Strata-X 33u Polymeric Reversed Phase columns (Phenomenex). Products were separated on a Luna 10 μm NH2 semi-preparative chromatography column (250 mm×10 mm, Phenomenex) and were manually collected at a flow-rate of 4.6 mL/min, starting with a 2 min isocratic step of 80% solvent A followed by a linear gradient of 80 to 50% solvent A over 38 min (solvent A=acetonitrile; solvent B=0.025% acetic acid). The solvent of the collected fractions was evaporated under a stream of nitrogen gas and the dried materials were dissolved in deionized water.
Resolution-enhanced 1D/2D 500-MHz ^1H NMR spectra were recorded in D2O on a Bruker DRX-500 spectrometer (Bijvoet Center, Department of NMR Spectroscopy, Utrecht University) at a probe temperature of 334K. Data acquisition and processing were done with Bruker Topspin 2.1. Prior to analysis, samples were exchanged twice in D2O (99.9 atom % D, Cambridge Isotope Laboratories, Inc., Andover, Mass.) with intermediate lyophilization, and then dissolved in 0.6 mL D2O. […] The 2D TOCSY spectra were recorded using an MLEV-17 (composite pulse devised by Levitt et al (1982)) mixing sequence with spin-lock times of 40-200 ms. The 2D ROESY spectra were recorded using standard Bruker XWINNMR software with mixing time of 200 ms. […] Natural abundance 2D ^13C-^1H HSQC experiments (^1H frequency 500.0821 MHz, ^13C frequency 125.7552 MHz) were recorded without decoupling during acquisition of the ^1H FID. […]

Data set [4] in a line: Screening glucan and fructansucrase enzymes for α-glucosylation of Rebaudioside A. The data set is classed as biochemical. The note with it: compared to GTF180-ΔN where comparative. How it is done:
as §1

Data set [5] can be described thus: Polymerization (oligosaccharide and glucan formation from sucrose) activity. It counts as biochemical. The note with it: data not shown. The method, then: Over a hundred glucan and fructansucrase wild type and mutant enzymes, mostly from Lactobacillus reuteri, were screened for Rebaudioside A α-glucosylation. For this, enzymes were incubated in 50 mM Rebaudioside A (FIG. 1) and 1000 mM sucrose for 3 hours. […] This is a clear advantage during downstream processing, the purification of the α-glucosylated Rebaudioside A products from mono- and disaccharides, oligosaccharides and glucans. By eliminating α-glucan synthesis, the most important side reaction, higher glycosylation yields were obtained for Rebaudioside A. At lower sucrose concentration (200 mM), these mutants had similar or even higher transglucosylating activity with Rebaudioside A than GTF180-ΔN and mutants S1137Y and Q1140E (data not shown).

The mark [6] stands for this setting: in water and in carbonated beverage base.

Residue numbers refer to the chain shown, from its start. Numbers in names are those of the source. Where two headings read alike, the source gives them in different places.

As to `C=C1C[C@@]23CC[C@H]4[C@@](C)(CCC[C@@]4(C)C(=O)O[C@@H]4O[C@H](CO)[C@@H](O)[C@H](O)[C@H]4O[C@@H]4O[C@H](CO)[C@@H](O)[C@H](O)[C@H]4O)[C@@H]2CC[C@]1(O[C@@H]1O[C@H](CO)[C@@H](O)[C@H](O[C@@H]2O[C@H](CO)[C@@H](O)[C@H](O)[C@H]2O)[C@H]1O[C@@H]1O[C@H](CO)[C@@H](O)[C@H](O)[C@H]1O)C3` [Rebaudioside D], in data set [1] (setting [6]), the “bitterness compared to Rebaudioside A” value is “decreased bitterness” and the “sweetness compared to Rebaudioside A” value is given as “increased sweetness”.

In the case of `C=C1C[C@@]23CC[C@H]4[C@@](C)(CCC[C@@]4(C)C(=O)O[C@@H]4O[C@H](CO)[C@@H](O)[C@H](O[C@@H]5O[C@H](CO)[C@@H](O)[C@H](O)[C@H]5O)[C@H]4O[C@@H]4O[C@H](CO)[C@@H](O)[C@H](O)[C@H]4O)[C@@H]2CC[C@]1(O[C@@H]1O[C@H](CO)[C@@H](O)[C@H](O[C@@H]2O[C@H](CO)[C@@H](O)[C@H](O)[C@H]2O)[C@H]1O[C@@H]1O[C@H](CO)[C@@H](O)[C@H](O)[C@H]1O)C3` [Rebaudioside M], in data set [1] (in acidified water), the “bitterness compared to Rebaudioside A” value is on record as “reduced bitterness” and the “sweetness compared to Rebaudioside A” value is “higher sweetness”. Further, the “bitterness compared to Rebaudioside A” value in data set [1] (in water solution) is listed as “reduced bitterness”.

B1: GTF180-ΔN: N-terminal truncated GTF180 (AY697430) of Lactobacillus reuteri 180; Met-Gly-742-1772-His6 (protein, listed as Lactobacillus reuteri)
chain: MGINGQQYYIDPTTGQPRKNFLLQNGNDWIYFDKDTGAGTNALKLQFDKGTISADEQYRRGNEAYSYDDKSIENVNGYLTADTWYRPKQILKDGTTWTDSKETDMRPILMVWWPNTVTQAYYLNYMKQYGNLLPASLPSFSTDADSAELNHYSELVQQNIEKRISETGSTDWLRTLMHEFVTKNSMWNKDSENVDYGGLQLQGGFLKYVNSDLTKYANSDWRLMNRTATNIDGKNYGGAEFLLANDIDNSNPVVQAEELNWLYYLMNFGTITGNNPEANFDGIRVDAVDNVDVDLLSIARDYFNAAYNMEQSDASANKHINILEDWGWDDPAYVNKIGNPQLTMDDRLRNAIMDTLSGAPDKNQALNKLITQSLVNRANDNTENAVIPSYNFVRAHDSNAQDQIRQAIQAATGKPYGEFNLDDEKKGMEAYINDQNSTNKKWNLYNMPSAYTILLTNKDSVPRVYYGDLYQDGGQYMEHKTRYFDTITNLLKTRVKYVAGGQTMSVDKNGILTNVRFGKGAMNATDTGTDETRTEGIGVVISNNTNLKLNDGESVVLHMGAAHKNQKYRAVILTTEDGVKNYTNDTDAPVAYTDANGDLHFTNTNLDGQQYTAVRGYANPDVTGYLAVWVPAGAADDQDARTAPSDEAHTTKTAYRSNAALDSNVIYEGFSNFIYWPTTESERTNVRIAQNADLFKSWGITTFELAPQYNSSKDGTFLDSIIDNGYAFTDRYDLGMSTPNKYGSDEDLRNALQALHKAGLQAIADWVPDQIYNLPGKEAVTVTRSDDHGTTWEVSPIKNVVYITNTIGGGEYQKKYGGEFLDTLQKEYPQLFSQVYPVTQTTIDPSVKIKEWSAKYFNGTNILHRGAGYVLRSNDGKYYNLGTSTQQFLPSQLSVQDNEGYGFVKEGNNYHYYDENKQMVKDAFIQDSVGNWYYLDKNGNMVANQSPVEISSNGASGTYLFLNNGTSFRSGLVKTDAGTYYYDGDGRMVRNQTVSDGAMTYVLDENGKLVSESFDSSATEAHPLKPGDLNGQK
Turning to B1, the “Rebaudioside A conversion” value in data set [2] (50 mM Rebaudioside A) turned out to be 55%. Moreover, in data set [2], the “RebAG1 formed from 50 mM Rebaudioside A” value is recorded as roughly 13 mM. Moreover, in data set [3], the “share of di-glucosylated Rebaudioside A product elongated with an (α1→3)-linked glucose” value was roughly 75%, the “share of di-glucosylated Rebaudioside A product elongated with another (α1→6)-linked glucose” value was roughly 25% and the “share of mono-α-glucosylated product with (α1→6)-linked glucose at the C-19 β-linked glucose” value came to 100%.

B2: GTF180-ΔN-XM2: single amino acid mutant (W1065L) of GTF180-ΔN (protein, listed as Lactobacillus reuteri)
chain: B1 chain with W326L
For the molecule B2, in data set [4], the “α-glucosylation / transglucosylating activity towards Rebaudioside A (in words)” value is listed as “able to α-glucosylate Rebaudioside A”. In addition, the “polymerization (oligosaccharide and glucan formation) activity” value in data set [5] was “almost no polymerization”.
